In assay [1] the target is HLA-A*02:01. As to the kind of experiment: IEDB peptide-MHC binding, purified MHC/competitive/fluorescence; ≥ and ≤ were set here for values at or beyond the usual limits of such assays. The conditions noted are these: source organism: Sudan ebolavirus.
Assay [2] deals with HLA-A*11:01. The assay is described as above.
For assay [3], the target named is HLA-A*24:02. The description is as above. The conditions noted are these: source organism: Sudan ebolavirus.
Assay [4] addresses HLA-B*07:02. As to the kind of experiment: IEDB peptide-MHC binding, purified MHC/competitive/radioactivity; filed as Kd, often an IC50 or EC50 that approximates it; ≥ and ≤ were set here for values at or beyond the usual limits of such assays.
Assay [5] deals with HLA-B*35:01. The assay is described as above.
For assay [6], the target named is HLA-B*51:01. The description is as above.
The target of assay [7] is HLA-B*53:01. The description is as above.
Assay [8] addresses HLA-B*54:01. The description is as above.
Assay [9] concerns the target HLA-A*02:01. Described as above.
The target in assay [10] is HLA-A*02:03. Described as above.
Assay [11] has as its target HLA-A*68:02. Described as above.
In assay [12] the target is HLA-A*68:02. As to the kind of experiment: IEDB peptide-MHC binding, purified MHC/competitive/fluorescence; filed as Kd, often an IC50 or EC50 that approximates it; ≥ and ≤ were set here for values at or beyond the usual limits of such assays.
The target in assay [13] is HLA-A*02:02. Kind of assay: IEDB peptide-MHC binding, purified MHC/competitive/radioactivity; filed as Kd, often an IC50 or EC50 that approximates it; ≥ and ≤ were set here for values at or beyond the usual limits of such assays.
Assay [14] deals with HLA-A*02:06. The assay is described as above.
Assay [15] has as its target HLA-A*30:01. Described as above.
Assay [16] deals with HLA-A*32:01. Described as above.
Assay [17] addresses HLA-B*08:01. Described as above.
Assay [18] addresses HLA-B*15:01. The description is as above.
Assay [19] has as its target HLA-B*15:03. The description is as above.
For assay [20], the target named is HLA-A*02:01. Kind of assay: IEDB peptide-MHC binding, purified MHC/competitive/fluorescence; filed as Kd, often an IC50 or EC50 that approximates it; ≥ and ≤ were set here for values at or beyond the usual limits of such assays. The conditions noted are these: source organism: Homo sapiens.
Assay [21] has as its target HLA-A*26:01. The description is as above. The conditions noted are these: source organism: Homo sapiens.
In assay [22] the target is HLA-A*69:01. Described as above. The conditions noted are these: source organism: Homo sapiens.
Assay [23] deals with HLA-B*15:01. Described as above.
Assay [24] has as its target HLA-B*15:17. Described as above. The conditions noted are these: source organism: Homo sapiens.
In assay [25] the target is HLA-B*18:01. The description is as above. The conditions noted are these: source organism: Homo sapiens.
The target of assay [26] is HLA-B*27:03. The description is as above. The conditions noted are these: source organism: Homo sapiens.
Assay [27] concerns the target HLA-B*39:01. The description is as above. The conditions noted are these: source organism: Homo sapiens.
The target in assay [28] is HLA-B*46:01. The assay is described as above. The conditions noted are these: source organism: Homo sapiens.
The target of assay [29] is HLA-B*51:01. Described as above. The conditions noted are these: source organism: Homo sapiens.
The target in assay [30] is HLA-B*57:01. The description is as above. The conditions noted are these: source organism: Homo sapiens.
For assay [31], the target named is HLA-A*03:01. The assay is described as above.
Assay [32] addresses HLA-B*48:01. Kind of assay: IEDB peptide-MHC binding, purified MHC/direct/fluorescence; filed as Kd, often an IC50 or EC50 that approximates it; ≥ and ≤ were set here for values at or beyond the usual limits of such assays. The conditions noted are these: source organism: Salmonella enterica subsp. enterica serovar Typhi.
Where [33] appears, read: source organism: Sudan ebolavirus.
The mark [34] stands for this setting: source organism: SARS coronavirus Tor2.
[35] abbreviates: source organism: Vaccinia virus WR.
Where [36] appears, read: source organism: Vaccinia virus Copenhagen.
Where [37] appears, read: source organism: Lassa virus Josiah.
Setting [38] is: source organism: Human immunodeficiency virus type 1 BH10.
The mark [39] stands for this setting: source organism: Escherichia coli B171.

Broadly, the IC50 is the concentration at which inhibition is half-maximal. Lower therefore signals greater potency in that assay. As usually defined, the Kd is a measure of binding affinity in units of concentration.

For the sequence ATSYLEYEI, the IC50 in assay [1] is 4960 nM; in assay [2] (setting [33]), at least 81400 nM; in assay [3], 5080 nM.

Take AVVVNPSVK: in [2] (source organism: West Nile virus), the IC50 stood at 2250 nM.

Take CPAEIVDTV: the Kd in assay [4] (setting [34]) is 893 nM; in [5] (setting [34]), 196 nM; in assay [6] (setting [34]), 1.88 nM; in assay [7] (setting [34]) it was 121 nM; in [8] (setting [34]), 9.99 nM.

Turning to DMEISAYRKL, the dissociation constant (Kd) is at least 58800 nM in assay [9] (source organism: Homo sapiens), at least 27600 nM in assay [10] (source organism: Homo sapiens) and at least 60000 nM in assay [11] (source organism: Homo sapiens).

Regarding DVALEDNLI, in assay [12] (source organism: Vibrio cholerae V52), the equilibrium dissociation constant (Kd) is 91.9 nM.

In assay [12] (source organism: Yersinia pestis CO92), EDNPGFFRV had a dissociation constant (Kd) of 296 nM.

As for EELRSLYNTI, in assay [12] (source organism: Human immunodeficiency virus 1), the Kd was at least 20000 nM.

Regarding ELAYYNSCM, the Kd in assay [13] (setting [35]) is 129 nM; in assay [10] (setting [35]) it was 136 nM; in [14] (setting [35]) it was 3580 nM; in assay [15] (setting [36]) it was 1450 nM; in assay [16] (setting [36]) it was at least 20600 nM; in [17] (setting [36]), 346 nM. Also, the equilibrium dissociation constant (Kd) in assay [18] (setting [36]) was found to be 594 nM; in assay [19] (setting [36]), 4140 nM.

In the case of EPEKDIRELL, the Kd was 15500 nM in [4] (setting [35]); at least 35500 nM in assay [5] (setting [35]); at least 51000 nM in assay [6] (setting [35]); 226 nM in [7] (setting [35]); at least 24200 nM in assay [8] (setting [35]).

As to EPISDYSAEV, the Kd in assay [4] (setting [35]) is 1390 nM; in assay [5] (setting [35]), 1080 nM; in assay [6] (setting [35]), 1110 nM; in [7] (setting [35]), 2390 nM; in [8] (setting [35]) it was 46.6 nM.

EQYKTESFF: the Kd in [18] (setting [35]) was 6.57 nM; in assay [19] (setting [35]), 1.8 nM.

With FFLQRLYFL, the equilibrium dissociation constant (Kd) in assay [15] (setting [35]) is 768 nM; in [16] (setting [35]), at least 38100 nM; in [17] (setting [35]) it was 6.79 nM; in [18] (setting [35]), 1210 nM; in assay [19] (setting [35]), 805 nM.

In [2] (source organism: Vaccinia virus), FGIKCIKKG showed an IC50 of at least 290000 nM.

Take FMTNFSMVY: the dissociation constant (Kd) in assay [19] (setting [35]) is 2.26 nM.

Take FNVNGSQVY: the dissociation constant (Kd) in assay [19] (setting [35]) was determined as 264 nM.

For FPCSICLSGL, the Kd in [4] (setting [34]) stood at 58.5 nM; in assay [5] (setting [34]) it was 123 nM; in assay [6] (setting [34]), 35 nM; in assay [7] (setting [34]) it was 300 nM; in [8] (setting [34]), 65.2 nM.

With FQQPQFQYL, in assay [19] (setting [36]), the Kd amounted to 22.6 nM.

As for GLSRYVAR, the Kd in assay [9] (source organism: Hepatitis B virus) is at least 50000 nM.

Regarding HPNPKGFCDL, the equilibrium dissociation constant (Kd) in [4] (setting [34]) was 968 nM; in [5] (setting [34]) it was 312 nM; in assay [6] (setting [34]) it was 923 nM; in assay [7] (setting [34]), 698 nM; in [8] (setting [34]), 9770 nM.

On to ILHVDILSF, for which the Kd in assay [19] (setting [35]) was 23.8 nM.

As to IMTSYQYLI, the dissociation constant (Kd) in assay [9] (setting [37]) is 33.3 nM; in assay [13] (setting [37]), 210 nM; in [10] (setting [37]) it was 78.1 nM; in assay [14] (setting [37]) it was 597 nM; in [11] (setting [37]), 698 nM.

In the case of ISSLGILVF, the Kd in [19] (setting [35]) was 81.7 nM.

For IYDFYYLDY, the equilibrium dissociation constant (Kd) in assay [20], in [21], in assay [22], in assay [23] (source organism: Homo sapiens), in assay [24] and in assay [25] was at least 20000 nM each time. The dissociation constant (Kd) in assay [26], in assay [27], in [28], in [29] and in assay [30] was at least 20000 nM each time.

For KKMTCGQPL, the equilibrium dissociation constant (Kd) in assay [19] (setting [35]) came out at 1.51 nM.

On to KLVSLGVNAV, for which the dissociation constant (Kd) in [9] (source organism: Hepatitis C virus subtype 1b) worked out at 344 nM.

In turn, KTYYHHTGY returned a Kd in assay [31] (source organism: Francisella tularensis subsp. holarctica OSU18) of 5.2 nM.

LDAVIRANN: the 50% inhibitory concentration (IC50) in assay [2] (setting [35]) is at least 169000 nM.

MYIFLPVML displayed a Kd in [12] (source organism: Entamoeba dispar SAW760) of 94.1 nM.

On to QLIPCMDVVL, for which, in [9] (source organism: Triticum aestivum), the Kd came to 384 nM.

Regarding QLYSTLLSF, the Kd in [18] (setting [35]) was determined as 3 nM; in assay [19] (setting [35]) it was 0.565 nM.

RAVEPGSML registered a Kd in [32] of 712 nM.

As for RGPGRAFVTI, the Kd is 4600 nM in assay [9] (setting [38]); at least 70000 nM in assay [13] (setting [38]); 12200 nM in assay [10] (setting [38]); 5790 nM in assay [14] (setting [38]); at least 69800 nM in [11] (setting [38]).

With RQVVDFFKF, the dissociation constant Kd in assay [19] (setting [35]) worked out at 0.344 nM.

On to RSSRGVQFL, for which the dissociation constant Kd in [19] (setting [36]) is 123 nM.

In [31] (source organism: Bacillus cereus G9241), RVDEIILFK displayed a dissociation constant Kd of 156 nM.

Consider SSVSPPNVL, for which the dissociation constant Kd in assay [19] (setting [35]) amounted to 18.3 nM.

TESDMDYHK had an IC50 in assay [2] (source organism: Zaire ebolavirus) of at least 174000 nM.

With TFLQSPPIR, the IC50 in assay [2] (setting [33]) was at least 119000 nM; in assay [3] it was 38800 nM.

For TKVMFVIRF, in assay [19] (setting [35]), the Kd is 30.8 nM.

Regarding TLYDRYLIH, the Kd in assay [31] (source organism: Coxiella burnetii RSA 331) was 6.9 nM.

For VEVEPGSSF, in [19] (setting [35]), the Kd came to 1.66 nM.

In the case of VMAGVFARY, the equilibrium dissociation constant (Kd) in assay [31] (setting [39]) amounted to 21.4 nM; in assay [23] (setting [39]), 61.7 nM.

The values above are taken from the Immune Epitope Database (IEDB).
